This is an account of results in patent US20190112385A1 (NBE THERAPEUTICS, published 2019).

Experiment [1] addresses T1, StrepII-tagged Mesothelin (human mesothelin isoform 2, NP_037536, with C-terminal strepII-tag) (human, UniProt Q13421-1 296-606, limits assumed).
T1 construct: also called Mesothelin-strep; soluble antigen
Nature of the experiment: SPR (Biacore T200), mAb captured by anti-human Fc-gamma IgG (ligand level 217.8 RU), Mesothelin-strep 10 to 1.25 nM as analyte, 25 °C, 1:1 model; Chi2 0.151 RU2. The protocol:
(§1) Table 1. Affinities of parental mouse mAb MN and humanized versions thereof. To evaluate the binding strength (affinity) of the generated humanized monoclonal antibodies (mAbs), and to compare affinites with parental mAbs, surface plasmon resonance (SPR) measurements were conducted, a biophysical method to accurately determine affinity. SPR was performed using a Biacore T200 instrument (GE Healthcare, Buckinghamshire, UK) and data was evaluated using Biacore Evaluation T200 V2.0 software. To capture mAbs, goat a-human Fc-gamma-specific IgG (Jackson ImmunoResearch, #109-005-098) was covalently immobilized on a CMS chip (GE Healthcare, # BR-1005-30).
(§2) Mesothelin-strep was diluted in running buffer using 2-fold serial dilutions ranging from 10 nM to 1.25 nM. Association was measured at a flow of 30 μl/min for 120 s, and dissociation was followed for 1000 s. All measurements were performed at 25° C. All curves were fitted using a 1:1 binding model with RI=0. Regeneration was done for 90 s using 100 mM H3PO4 at a flow of 30 μl/min.

The target in experiment [2] is T1, StrepII-tagged Mesothelin (human …). Nature of the experiment: ELISA of 293T supernatant on coated Mesothelin, normalized to IgG titer and given relative to parental mAb MN. As for the experimental part:
(§3) Antigen-binding analysis by ELISA was performed by coating of Nunc-Immuno MaxiSorp 96-well plates (Thermo Scientific, Waltham, USA) with antigen diluted in coating buffer (100 mM bicarbonate/carbonate buffer) over night at 4° C. For sandwich ELISA, plates were coated with 2 μg/ml AffiniPure F(ab′)2 fragment donkey anti-human IgG (Jackson Immunoresearch, West Grove, USA) diluted in coating buffer over night at 4° C. After coating, plates were washed twice with PBS/0.05% Tween-20 (PBS-T), blocked with PBS-T containing 3% bovine serum albumin (BSA) (Carl Roth, Karlsruhe, Germany) for 1 hour at 37° C. and washed again 5 times with PBS/T. L11 clone supernatants were pre-diluted 3-fold, while supernatants from 293T cells were pre-diluted 50-fold. Parental mAbs diluted to 0.5 μg/ml were used to generate standard curves. 3.5-fold serial dilutions of samples were added and plates were incubated for 1 hour at 37° C. After 5 washes with PBS/T, HRPO-conjugated F(ab)2 anti-human FC-gamma (Jackson Immunoresearch, West Grove, USA) was added at 10′000-fold dilution in PBS/T containing 1% BSA, and plates were incubated for 1 hour at 37° C. Finally, plates were washed 5 times with PBS/T and 50 μl of Sigmafast OPD Peroxidase substrate (Sigma-Aldrich, St. Louis, USA) were added. Reactions were stopped by adding 50 μl of 2M H₂SO₄. Absorption was measured at 490 nm. OD50 values of standards with known concentrations and samples determined by 4-point curve fitting models were used to calculate EC50.
(§4) FIG. 10B Deconvolution and validation of recovered sequences. All possible combinations of VH/VL pairs per clone along with the parental pair as a control were transiently transfected into 293T cells. Cell clones and supernatants were analysed for antigen-binding and IgG titer by ELISA as described in FIG. 4D. Ratios of antigen-binding/IgG titers were determined to obtain antigen binding values normalized to IgG content in supernatants (Meso-binding/IgG). Normalized binding is also shown in relation to parental mAb (binding % of parental).

Experiment [3] has the same target. Description: SPR (Biacore T200), mAb from 293T supernatant captured by anti-human Fc-gamma IgG, Mesothelin-strep 10 to 1.25 nM as analyte, 25 °C, 1:1 model. The protocol: as §1
FIG. 10C Isoaffinity plot showing association (kₐ) and dissociation constants (kd) as determined by surface plasmon resonance (SPR). The same supernatants as described in (B) were used for the analysis. Diagonal lines represent equal affinities.

Experiment [4] has the same target. Nature of the experiment: ELISA of 293T supernatant on coated Mesothelin, divided by the IgG titer from a sandwich ELISA. The protocol:
as §3, §4

Experiment [5] has the same target. Description: SPR (Biacore T200), mAb captured by anti-human Fc-gamma IgG (ligand level 143.6 RU), Mesothelin-strep 10 to 1.25 nM as analyte, 25 °C, 1:1 model; Chi2 0.100 RU2. As for the experimental part: as §1, §2
The target is the same in experiment [6]. Description: SPR (Biacore T200), mAb captured by anti-human Fc-gamma IgG (ligand level 106.5 RU), Mesothelin-strep 10 to 1.25 nM as analyte, 25 °C, 1:1 model; Chi2 0.052 RU2. As for the experimental part: as §1, §2
The target is the same in experiment [7]. Nature of the experiment: SPR, Biacore T200, mAb captured by anti-human Fc, Mesothelin-strep as analyte.
Experiment [8] shares this target. Nature of the experiment: SPR (Biacore T200), mAb captured by anti-human Fc-gamma IgG (ligand level 90.0 RU), Mesothelin-strep 10 to 1.25 nM as analyte, 25 °C, 1:1 model; Chi2 0.075 RU2. As for the experimental part:
as §1, §2

Positions count from the first letter of the chain named.

T1 sequence (Q13421 other isoform, or with tags, fused parts or gaps limits assumed): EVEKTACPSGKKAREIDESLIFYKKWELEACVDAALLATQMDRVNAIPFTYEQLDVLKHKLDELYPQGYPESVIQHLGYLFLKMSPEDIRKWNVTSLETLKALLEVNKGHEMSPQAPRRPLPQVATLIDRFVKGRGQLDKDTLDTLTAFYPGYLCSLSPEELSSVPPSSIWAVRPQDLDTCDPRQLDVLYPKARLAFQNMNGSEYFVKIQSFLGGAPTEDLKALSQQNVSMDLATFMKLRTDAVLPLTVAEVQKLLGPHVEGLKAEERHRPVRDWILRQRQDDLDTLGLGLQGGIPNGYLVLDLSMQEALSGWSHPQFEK

B1: huMN5-2 (antibody, V domains shown)
VH: QVQLQQSGAELVKPGASLKLSCKASGYTFTSYWMHWVRQAPGQGLEWIGAIHPNSDNTIYYQKFKSRFTITVDKSTSTAYMQLSSLTSEDTAVYYCAIIITPVVPKFDYWGQGTTVTVSS
VL: DIVMTQSSSFMSASVGDRVSITCKASHDVGTSLAWYQQKPGQSPKLLIYWASTRQTGVPDRFSGSGSGTDFTLTISSVQSEDVATYFCQQYSSYPLTFGQGTKLEIK
notes: No sheet says in words that huMN5a is huMN5-2
For B1, in experiment [1], binding was characterised by a dissociation constant (Kd) of 0.176 nM. The “binding (% of parental)” value in experiment [2] is 84.9 % of parental. Further, in experiment [3], the Kd was found to be 0.176 nM, the koff was determined as 0.000218 s⁻¹ and the kon worked out at 1.24e+06 M⁻¹ s⁻¹. For the same molecule, in experiment [4], the Meso-binding/IgG is 0.79.

B2: huMN5-3 (antibody, V domains shown)
VH: B1 VH
VL: DIVMTQSPDSLAVSLGERATITCKSSHDVGTSLAWYQQKPGQPPKLLIYWASTRESGVPDRFSGSGSGTDFTLTISSLQAEDVAVYYCQQYSSYPLTFGQGTKLEIK
notes: No sheet says in words that huMN5b is huMN5-3
B2 yielded a Kd in experiment [5] of 0.114 nM. Also, the “binding (% of parental)” value in experiment [2] is 82.4 % of parental. Moreover, in experiment [3], binding was put at a Kd of 0.114 nM, the koff came to 0.000115 s⁻¹ and the kon was 1.01e+06 M⁻¹ s⁻¹. The Meso-binding/IgG in experiment [4] was found to be 0.77.

B3: parental anti-Mesothelin mouse mAb MN, produced as chimeric full-length IgG1 antibody with human constant regions (antibody, V domains shown)
VH: QVQLQQPGAELVKPGASMKLSCKASGYTFTSYWMHWVKQRPGQGLEWIGMIHPNSDNTIYYEKFKSKATLTVDKSSSTAYMQLSSLTSEDSAVYYCAIIITPVVPKFDYWGQGTTLTVSS
VL: DIVMTQSHQFMSTSVGDRVSVTCKASHDVGTSVAWYQQKPGQSPKLLIYWASTRHTGVPDRFTGSGSGTDFTLTISNVQSEDLADYFCQQYSSYPLTFGAGTKLELK
notes: also called VH-MN (parental mouse); parental chimeric antibody
With B3, the “binding (% of parental)” value in experiment [2] was 100 % of parental. In experiment [3], this molecule had a koff of 6.81e-05 s⁻¹ and a kon of 1.31e+06 M⁻¹ s⁻¹. The affinity in experiment [6], expressed as Kd, was 0.05 nM. Further, the Meso-binding/IgG in experiment [4] stood at 0.94. In addition, the dissociation constant (Kd) in experiment [7] was 0.051 nM.

B4: huMN3-1 (antibody, V domains shown)
VH: B1 VH with L18M, F68V, I70L, T76I
VL: DIQMTQSPSFLSASVGDRVTITCRASHDVGTSLAWYQQKPGQAPKLLIYWASTLQTGVPSRFSGSGSGTEFTLTISSLQPEDFATYYCQQYSSYPLTFGPGTTVDMK
Turning to B4, the “binding (% of parental)” value in experiment [2] is 111 % of parental. In experiment [3], this molecule had a Kd of 0.193 nM, a dissociation rate constant (koff) of 0.000274 s⁻¹ and a kon of 1.42e+06 M⁻¹ s⁻¹. Moreover, in experiment [4], the Meso-binding/IgG was 1.04. Besides, the Kd in experiment [8] came out at 0.193 nM.
